Source: publication PMC11261447

Biological target: HA-OGT-D4 (D-box mutant R351A/L354A) (UniProt O15294)

## Flag-CDC20 (from UniProt Q12834 1-499) (natural protein)
  decrease in ubiquitination level of HA-OGT-D4 against HA-OGT-WT in 293T cells transfected with Myc-Ub and Flag-CDC20 (anti-HA precipitates blotted with anti-Myc): 50%
